Source: paper PMC9177663, “Substrate-dependent modulation of the leukotriene A4 hydrolase aminopeptidase activity and effect in a murine model of acute lung inflammation” (Scientific Reports, 2022)

T1: leukotriene A4 hydrolase (LTA4H) (Homo sapiens, UniProt P09960)
T1 construct: N-terminal (His)6- and Xpress-tag
T1 sequence (P09960 2-611): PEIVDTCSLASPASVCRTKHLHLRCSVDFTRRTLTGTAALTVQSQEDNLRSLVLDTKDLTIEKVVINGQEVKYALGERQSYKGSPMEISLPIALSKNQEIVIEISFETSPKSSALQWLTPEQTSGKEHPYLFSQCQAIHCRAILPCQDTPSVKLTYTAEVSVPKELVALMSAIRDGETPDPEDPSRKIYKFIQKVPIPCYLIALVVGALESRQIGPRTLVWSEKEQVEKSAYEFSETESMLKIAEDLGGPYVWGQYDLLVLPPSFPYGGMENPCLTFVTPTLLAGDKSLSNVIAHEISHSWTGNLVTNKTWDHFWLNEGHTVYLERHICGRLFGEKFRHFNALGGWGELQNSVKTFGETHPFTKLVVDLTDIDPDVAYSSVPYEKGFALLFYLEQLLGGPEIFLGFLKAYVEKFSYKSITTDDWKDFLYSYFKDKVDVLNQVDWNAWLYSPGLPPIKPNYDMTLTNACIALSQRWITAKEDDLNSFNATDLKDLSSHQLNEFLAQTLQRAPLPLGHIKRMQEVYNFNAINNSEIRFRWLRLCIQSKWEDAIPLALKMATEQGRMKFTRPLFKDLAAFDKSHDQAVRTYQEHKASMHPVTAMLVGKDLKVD


Key:
[1] = biological target: T1, leukotriene A4 hydrolase (LTA4H); experiment: X-ray co-crystal structure of ternary LTA4H:4MDM:OPB-Pro complex, […] Å; format: binding
purified protein = substrate: N=C(N)NCCC[C@H](N)C(=O)Nc1ccc([N+](=O)[O-])cc1; experiment: purified protein; conditions: Zn2+ LTA4H AP substrate site; cannot bind simultaneously with 4MDM
[2] = substrate: C[C@H](N)C(=O)Nc1ccc([N+](=O)[O-])cc1; experiment: Michaelis-Menten hydrolysis kinetics of purified LTA4H at A405 (KM); format: biochemical, Homo sapiens; conditions: Zn2+ LTA4H AP substrate site
[3] = substrate: O=C(Nc1ccc([N+](=O)[O-])cc1)[C@@H]1CCCN1; experiment: as above; format: biochemical, Homo sapiens; conditions: Zn2+ LTA4H AP substrate site

Row | Molecule | X-ray co-crystal structure of ternary LTA4H:4MDM:OPB-Pro complex, 2.8 Å [1] | Km (purified protein) [µM] | kcat (purified protein) [s⁻¹] | kcat/Km (purified protein) [M⁻¹ s⁻¹] | Km [2] [µM] | kcat [2] [s⁻¹] | kcat/Km [2] [M⁻¹ s⁻¹] | Km [3] [µM] | kcat [3] [s⁻¹] | kcat/Km [3] [M⁻¹ s⁻¹]
1 | O=C(O)[C@@H]1CCCN1C(=O)CCC(=O)N1CCCC1 [OPB-Pro, N-(4-oxo-4-pyrrolidinyl-butanoyl)-proline] | The OPB-Pro was bound in the AP active site with its prolyl carbonyl group interacting with the zinc atom. |  |  |  |  |  |  |  |  | 
2 | leukotriene A4 hydrolase (LTA4H) (Homo sapiens) (protein, N-terminal (His)6- and Xpress-tag) PEIVDTCSLASPASVCRTKHLHLRCSVDFTRRTLTGTAALTVQSQEDNLRSLVLDTKDLTIEKVVINGQEVKYALGERQSYKGSPMEISLPIALSKNQEIVIEISFETSPKSSALQWLTPEQTSGKEHPYLFSQCQAIHCRAILPCQDTPSVKLTYTAEVSVPKELVALMSAIRDGETPDPEDPSRKIYKFIQKVPIPCYLIALVVGALESRQIGPRTLVWSEKEQVEKSAYEFSETESMLKIAEDLGGPYVWGQYDLLVLPPSFPYGGMENPCLTFVTPTLLAGDKSLSNVIAHEISHSWTGNLVTNKTWDHFWLNEGHTVYLERHICGRLFGEKFRHFNALGGWGELQNSVKTFGETHPFTKLVVDLTDIDPDVAYSSVPYEKGFALLFYLEQLLGGPEIFLGFLKAYVEKFSYKSITTDDWKDFLYSYFKDKVDVLNQVDWNAWLYSPGLPPIKPNYDMTLTNACIALSQRWITAKEDDLNSFNATDLKDLSSHQLNEFLAQTLQRAPLPLGHIKRMQEVYNFNAINNSEIRFRWLRLCIQSKWEDAIPLALKMATEQGRMKFTRPLFKDLAAFDKSHDQAVRTYQEHKASMHPVTAMLVGKDLKVD |  | 18790 ± 2730 | 24.4 | 1300 | 1600 ± 120 | 1.74 ± 0.07 | 1080 | 840 ± 50 | 0.19 ± 0.01 | 230
